The test system of data set [1] is healthy male normal glycemic Wistar rats. The experiment in a line: Blood glucose-lowering effect of insulin analogues in rats. The format is in vivo, rat. The settings on record: dose 9 nmol/kg s.c., n=8, blood glucose up to eight hours after injection.
Procedure: In order to test the insulin derivatives of the invention for their biopharmacological and physicochemical properties, a solution of the compounds was prepared as follows: the insulin derivative of the invention was dissolved with a target concentration of 240±5 μM in 1 mM hydrochloric acid with 80 μg/mL zinc (as zinc chloride). For this purpose, initially an amount of the freeze-dried material which is about 30% higher than required on the basis of the molecular weight and the desired concentration was weighed out. The concentration present was then determined by analytical HPLC and the solution was subsequently made up to the volume necessary to achieve the target concentration with 5 mM hydrochloric acid with 80 μg/mL zinc. If necessary, the pH was readjusted to 3.5±0.1. After the final analysis by HPLC to verify the target concentration of 240±5 μM, the finished solution was transferred by means of a syringe with a 0.2 μm filter attachment into a sterile vial which was closed with a septum and a crimped cap. […] Blood samples are taken from the animals immediately before the injection of the insulin analogue and at regular intervals up to eight hours after the injection, and the blood glucose content therein is determined.
The conditions of data set [2]: from Kohn et al., cited from earlier work.

Consider human insulin, for which, in data set [1], the hypoglycemic effect entry is “hypoglycemic effect”. Also, the “isoelectric point (pl)” value in data set [2] is 5.6.

As for “Arg (A0), Gly (A21), Arg (B31), Arg (B32) human insulin [Compound 18]”, the calculated pl in data set [2] (calculated) was 7.58. In addition, the experimentally determined pl in data set [2] (experimentally determined) is on record as 7.3.

The record behind these values is US8633156B2, “Insulin derivatives having an extremely delayed time-action profile” (Sanofi-Aventis Deutschland GmbH, priority 2008, dated 2014).
